Measured values reported in patent US20220193237A1 (Bristol-Myers Squibb, published 2022).
Numbering of substitutions follows the chain as printed. Names and notes keep the numbering of the source. Like-named read-outs stand apart in the source and are kept apart here. One block for each binder: values may come before it.

Legend:
[1] = biological target: T1, human CTLA-4 on 58 α-β-CTLA-4/CD3 ζ cells (human; mouse (mCD3ζ)); assay: flow cytometry (GMFI), full-length IgG on 58 α-β-CTLA-4/CD3 ζ cells, pH 7.2
T1 construct: also called 58αβ-hCTLA4/mCD3ζ cells; 58αβ-CTLA4/mCD3ζ cells

[2] = biological target: T1, human CTLA-4 on 58 α-β-CTLA-4/CD3 ζ …; assay: flow cytometry (GMFI), full-length IgG on 58 α-β-CTLA-4/CD3 ζ cells, pH 6.3
[3] = biological target: T1, human CTLA-4 on 58 α-β-CTLA-4/CD3 ζ …; assay: flow cytometry (GMFI), full-length IgG on 58 α-β-CTLA-4/CD3 ζ cells, pH 6.6
monomeric human CTLA-4 [4] = biological target: T2, monomeric human CTLA-4 (human, UniProt P16410 36-161, limits assumed); assay: SPR, captured Fab, pH 6.0
T2 construct: Soluble monomeric analyte in SPR; also called huCTLA-4
T2 sequence: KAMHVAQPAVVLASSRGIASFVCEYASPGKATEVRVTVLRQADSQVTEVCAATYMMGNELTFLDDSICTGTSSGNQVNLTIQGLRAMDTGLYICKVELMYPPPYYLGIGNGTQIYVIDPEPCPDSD

monomeric human CTLA-4 [5] = biological target: T2, monomeric human CTLA-4; assay: SPR, captured Fab, pH 7.4
monomeric human CTLA-4 [6] = biological target: T2, monomeric human CTLA-4; assay: SPR, captured Fab, pH 6.0 vs 7.4
[7] = biological target: T1, human CTLA-4 on 58 α-β-CTLA-4/CD3 ζ …; assay: flow cytometry (APC mean FI), Fab on 58αβ-CTLA4/mCD3ζ cells, pH 6.7
Experimental: (§1) Antibodies were titrated from 100 μg/mL at a 1:4 dilution across 12 points in pH-specific buffers and incubated for 30-60 minutes. Buffers contained HBSS, 2% FBS^HI, 0.02% sodium azide, 2 mM EDTA, and sodium phosphate buffer (pH 5.4). Sodium phosphate buffer was added until desired pH was reached (7.2, 6.7, 6.2). Approximately 3e5 cells/well were tested for each cell line. […] Detection was done with a monovalent anti-hKappa secondary nanobody conjugated to Alexa647 and used at a dilution of 1:2000. Cells were fixed with BD Fix Solution I for 30 minutes prior to resuspension in pH-specific buffers and reading on the cytometer (BD Fortessa).
(§2) The experimental protocol was the same as used to obtain the data of FIGS. 16A-C.

monomeric cyno CTLA-4 [8] = biological target: T3, monomeric cyno CTLA-4 (cynomolgus macaque (Macaca fascicularis), UniProt G7PL88 36-161); assay: SPR, Fab, monomeric cyno CTLA-4 as analyte; koff (s^-1, linear axis 0 to 0.3) plotted against pH
T3 construct: also called CTLA-4 from the cynomolgus macaque Macaca fascicularis
T3 sequence: T2 sequence with S14N, I18T, L106M
Experimental: (§3) The pH dependence of binding of selected antibodies of the present invention to human CTLA-4 and cyno CTLA-4 was measured by surface plasmon resonance (SPR) spectroscopy, essentially as described in Example 3. Briefly, antibodies were studied as monovalent Fab fragments. Anti-human kappa polyclonal capture antibody (Southern Biotech, Ala. USA) was immobilized on a ethylenediamine-blocked CM4 sensor chip in a Biacore T200 surface plasmon resonance system. Fab fragments of selected antibodies of the present invention were then captured on one flow cell each. […] Running buffer was 20 mM BisTris, 150 mM NaCl, 0.05% Tween-20, 1 g/L BSA, at a pH ranging from 5.5 to 7.4 in 0.1-0.2 pH unit intervals (12 total). The surface was regenerated with 1/200 H₃PO₄ between cycles. […] Where required, the Rₘₐₓ was fixed by calculating expected binding based on capture level and apparent activity from other fits for the same Fab.

[9] = biological target: T1, human CTLA-4 on 58 α-β-CTLA-4/CD3 ζ …; assay: flow cytometry (APC mean FI), Fab on 58αβ-CTLA4/mCD3ζ cells, pH 6.2
Experimental: as §1, §2

monomeric cyno CTLA-4 [10] = biological target: T3, monomeric cyno CTLA-4; assay: SPR, Fab, monomeric cyno CTLA-4 as analyte; KD (M, log axis 10^-9 to 10^-5) plotted against pH
Experimental: as §3

monomeric human CTLA-4 [11] = biological target: T2, monomeric human CTLA-4; assay: SPR, pH 6.0 and pH 7.5 (FIG. 6)
Experimental: (§4) Unless otherwise indicated, experiments were performed with a BIACORE® SPR surface plasmon resonance spectrometer (Biacore AB, Uppsala, Sweden). Antibodies were tested as monovalent Fab fragments to simplify analysis.
(§5) Monomeric human CTLA-4 was flowed as analyte with up to 2 μM top concentration. Between cycles, the capture surface was regenerated with 75 mM phosphoric acid. Experiments were run on a BIACORE® T200 instrument at 37° C. Running buffers were HEPES buffered saline for pH 7.4 experiments and Bis-Tris buffered saline for lower pH experiments. […] Double referenced sensorgrams were fitted to a 1:1 Langmuir binding model with mass transport to determine equilibrium dissociation constants (KD), as well as association (kₐ) and dissociation (kd) rate constants where appropriate.

monomeric human CTLA-4 [12] = biological target: T2, monomeric human CTLA-4; assay: SPR, captured Fab, pH 6.0; remark: listed apart in the source
Experimental: as §4, §5

monomeric human CTLA-4 [13] = biological target: T2, monomeric human CTLA-4; assay: SPR, captured Fab, pH 7.4; remark: listed apart in the source
Experimental: as §4, §5

monomeric human CTLA-4 [14] = biological target: T2, monomeric human CTLA-4; assay: SPR, captured Fab, pH 6.0 and pH 7.4
monomeric human CTLA-4 [15] = biological target: T2, monomeric human CTLA-4; assay: SPR, captured Fab, pH 6.0 vs 7.4; remark: listed apart in the source
Experimental: as §4, §5

monomeric human CTLA-4 [16] = biological target: T2, monomeric human CTLA-4; assay: SPR, captured Fab, pH 7.4; pH 7.4
Experimental: as §4, §5

B1: ipi.71 (full-length IgG) (antibody, V domains shown)
VH: QVQLVESGGGVVQPGRSLRLSCAASGFTFSHYTMHWVRQAPGKGLEWVTFISYDGHNKYYADSVKGRFTISRDNSKNTLYLQMNSLRAEDTAIYYCARTGWLGPFDYWGQGTLVTVSS
VL: not shown
notes: Full-length bivalent IgG (human IgG1); heavy chain entry is without the C-terminal lysine
EC50 (read off the curve) [1]: ~1 nM | EC50 (read off the curve) [2]: ~1 nM | EC50 (read off the curve) [3]: ~1 nM

B4: ipi.64 Fab (Fab, V domains shown)
VH: B1 VH with H56N
VL: not shown
notes: Tested as monovalent Fab; also called IPI.64 mutant fab; LCDR1 S28E/S31D and HCDR1 S31H
Kd (monomeric human CTLA-4 [4]): 2.7 nM | kon (monomeric human CTLA-4 [4]): 1.4e+06 M⁻¹ s⁻¹ | t1/2 (monomeric human CTLA-4 [4]): 182 s | Kd (monomeric human CTLA-4 [5]): 37 nM | kon (monomeric human CTLA-4 [5]): 780000 M⁻¹ s⁻¹ | t1/2 (monomeric human CTLA-4 [5]): 25 s | CAPBP (ratio of KD normalized to ipilimumab) (monomeric human CTLA-4 [11]): 27.2 | KD 7.4/6 (APBP) (monomeric human CTLA-4 [6]): 13 | ka 6/7.4 (monomeric human CTLA-4 [6]): 1.8 | t1/2 6/7.4 (monomeric human CTLA-4 [6]): 7.6 | binding result (monomeric cyno CTLA-4 [10]): binds

B5: ipi.3 Fab (Fab, V domains shown)
VH: B1 VH with H31S, H56N, T99H
VL: not shown
notes: Tested as monovalent Fab; also called HCDR3 T95H (Kabat)
Kd (monomeric human CTLA-4 [12]): 180 nM | koff (monomeric human CTLA-4 [12]): 0.15 s⁻¹ | kon (monomeric human CTLA-4 [12]): 840000 M⁻¹ s⁻¹ | Kd (monomeric human CTLA-4 [13]): 200 nM | koff (monomeric human CTLA-4 [13]): 0.094 s⁻¹ | kon (monomeric human CTLA-4 [13]): 480000 M⁻¹ s⁻¹ | Kd (monomeric human CTLA-4 [4]): 76 nM | kon (monomeric human CTLA-4 [4]): 1.1e+06 M⁻¹ s⁻¹ | t1/2 (monomeric human CTLA-4 [4]): 9 s | Kd (monomeric human CTLA-4 [5]): 97 nM | fold decrease of affinity (increased KD) vs ipilimumab (monomeric human CTLA-4 [14]): ~4 fold | KD 7.4/6 (APBP) (monomeric human CTLA-4 [15]): 0.9 | KD 7.4/6 (APBP) (monomeric human CTLA-4 [6]): 1.3

B6: ipi.90 Fab (Fab, V domains shown)
VH: B1 VH with H56N, T99H
VL: EIVLTQSPGTLSLSPGERATLSCRASQEVGDSELAWYQQKPGQAPRLLIYGAFSRATGIPDRFSGSGSGTDFTLTISRLEPEDFAVYYCQQYGSSPWTFGQGTKVEIKR
notes: Tested as monovalent Fab
Kd (monomeric human CTLA-4 [4]): 36 nM | kon (monomeric human CTLA-4 [4]): 1.9e+06 M⁻¹ s⁻¹ | t1/2 (monomeric human CTLA-4 [4]): 10 s | KD 7.4/6 (APBP) (monomeric human CTLA-4 [6]): > 28 | Kd (monomeric human CTLA-4 [16]): > 1000 nM

Continued, values first:

Kd (monomeric human CTLA-4 [4]): 18 nM | kon (monomeric human CTLA-4 [4]): 1.2e+06 M⁻¹ s⁻¹ | t1/2 (monomeric human CTLA-4 [4]): 33 s | Kd (monomeric human CTLA-4 [5]): > 350 nM | KD 7.4/6 (APBP) (monomeric human CTLA-4 [6]): > 20 | EC50 (read off the curve) [7]: ~3 µg/mL | binding result (monomeric cyno CTLA-4 [8]): binds
B2: ipi.106 Fab (Fab, V domains shown)
VH: B1 VH with T99H
VL: B6 VL with D31E
notes: Tested as monovalent Fab

Kd (monomeric human CTLA-4 [4]): 2.5 nM | kon (monomeric human CTLA-4 [4]): 940000 M⁻¹ s⁻¹ | t1/2 (monomeric human CTLA-4 [4]): 289 s | Kd (monomeric human CTLA-4 [5]): 46 nM | kon (monomeric human CTLA-4 [5]): 460000 M⁻¹ s⁻¹ | t1/2 (monomeric human CTLA-4 [5]): 33 s | KD 7.4/6 (APBP) (monomeric human CTLA-4 [6]): 17 | ka 6/7.4 (monomeric human CTLA-4 [6]): 2.1 | t1/2 6/7.4 (monomeric human CTLA-4 [6]): 8.8 | EC50 (read off the curve) [9]: ~0.1 µg/mL | binding result (monomeric cyno CTLA-4 [10]): binds
B3: ipi.100 Fab (Fab, V domains shown)
VH: B1 VH with H56N
VL: not shown
notes: Tested as monovalent Fab
